Source: the supplement of paper PMC9233669
Variants at the floor of the assay were thinned out.

How the values were obtained:
biotinyl-Phe-oxazolone = experiment: self-aminoacylation, catalytic enhancement (BFO) (fold over background); higher = more active; k-Seq, kA / k0A0; sequences stand for … in GGGAAUGGAUCCACAUCUACGAAUUC…UUCACUGCAGACUUGACGAAGCUG
Method in brief: (§1)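 Catalytic enhancement equals the median kA over the uncatalyzed rate, the latter read from the low-activity peak of a bimodal Gaussian fit. Values of kA came from fitting each sequence's fraction reacted to a pseudo-first-order model, with 1000 bootstraps. Reacted RNA was captured with streptavidin and quantified by triplicate qPCR and Illumina sequencing after 90 minutes at room temperature with 2–1250 μM biotinyl-aminoacyl-oxazolone and 0.43 μM mutagenized RNA pools bearing a 21-nt variable region.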

biotinyl-Ile-oxazolone = experiment: self-aminoacylation, catalytic enhancement (BIO) (fold over background); higher = more active; k-Seq, kA / k0A0; sequences stand for … in GGGAAUGGAUCCACAUCUACGAAUUC…UUCACUGCAGACUUGACGAAGCUG
Method in brief: as §1

biotinyl-Met-oxazolone = experiment: self-aminoacylation, catalytic enhancement (BMO) (fold over background); higher = more active; k-Seq, kA / k0A0; sequences stand for … in GGGAAUGGAUCCACAUCUACGAAUUC…UUCACUGCAGACUUGACGAAGCUG
Method in brief: as §1

biotinyl-Val-oxazolone = experiment: self-aminoacylation, catalytic enhancement (BVO) (fold over background); higher = more active; k-Seq, kA / k0A0; sequences stand for … in GGGAAUGGAUCCACAUCUACGAAUUC…UUCACUGCAGACUUGACGAAGCUG
Method in brief: as §1

biotinyl-Leu-oxazolone = experiment: self-aminoacylation, catalytic enhancement (BLO) (fold over background); higher = more active; k-Seq, kA / k0A0; sequences stand for … in GGGAAUGGAUCCACAUCUACGAAUUC…UUCACUGCAGACUUGACGAAGCUG
Method in brief: as §1

biotinyl-Trp-oxazolone = experiment: self-aminoacylation, catalytic enhancement (BWO) (fold over background); higher = more active; k-Seq, kA / k0A0; sequences stand for … in GGGAAUGGAUCCACAUCUACGAAUUC…UUCACUGCAGACUUGACGAAGCUG
Method in brief: as §1

| Sequence | self-aminoacylation (biotinyl-Phe-oxazolone) | self-aminoacylation (biotinyl-Ile-oxazolone) | self-aminoacylation (biotinyl-Met-oxazolone) | self-aminoacylation (biotinyl-Val-oxazolone) | self-aminoacylation (biotinyl-Leu-oxazolone) | self-aminoacylation (biotinyl-Trp-oxazolone) |
| --- | --- | --- | --- | --- | --- | --- |
| AAGUUUGCUAAUUGUCGCGAG [Fam3.1 aminoacylation ribozyme variant] | 17.4 | 2.04 | 1.75 | 1.68 | 2.02 | 2.7 |
| CUACUUCAAACCAUAGGUCUG [Fam1A.1 aminoacylation ribozyme variant] | 0.985 | 0.807 | 0.47 | 0.809 | 0.615 | 0.487 |
| AUUACCCUGGUGAUAGAGUGA [Fam2.1 aminoacylation ribozyme variant] | 53.4 | 3.75 | 9.04 | 3.62 | 8.59 | 8.54 |
| AAGUAUGCGAAUAGUCGCAAG [Fam3.1 aminoacylation ribozyme variant] | 1.74 | 1.32 | 1.13 | 1 | 1.19 | 0.948 |
| AUUCAGCUAGGUCGUCGGGUG [Fam2.2 aminoacylation ribozyme variant] | 13.1 | 2.53 | 3.24 | 2.62 | 3.24 | 3.08 |
| CCCCACCUCAAGCAAUCGGUC [Fam1B.1 aminoacylation ribozyme variant] | 5.97 | 1.73 | 1.48 | 2.2 | 1.48 | 4.87 |
| AUGCACGUAGGUCAUCGGGUG [Fam2.2 aminoacylation ribozyme variant] | 45.4 | 3.52 | 4.47 | 3.89 | 4.72 | 5.33 |
| CUACUUCAAACAAUCGGGCUC [Fam1A.1 aminoacylation ribozyme variant] | 5.16 | 1.01 | 1.08 | 1.17 | 0.971 | 2.48 |
| AUUGACCUAGGUCAUCGGGCG [Fam2.2 aminoacylation ribozyme variant] | 15 | 3.78 | 5.01 | 4.14 | 6 | 4.79 |
| CCACCCUUCAAGUAAUCGGUC [Fam1B.1 aminoacylation ribozyme variant] | 7.55 | 1.15 | 1.18 | 1.25 | 1.13 | 7.3 |
| CGACACUUCAAGCAAUUGGUC [Fam1B.1 aminoacylation ribozyme variant] | 0.985 | 0.908 | 0.864 | 0.718 | 0.668 | 0.777 |
| AUUACCCUGGUCAUCGCGUGU [Fam2.1 aminoacylation ribozyme variant] | 51.7 | 4.14 | 8.31 | 4.84 | 9.06 | 8.25 |
| AAGUUUGCUAAUAGUCGUGAG [Fam3.1 aminoacylation ribozyme variant] | 2.86 | 1.19 | 1.31 | 1.04 | 1.13 | 2.15 |
| CCACUUCAAACAAUCCGUCUG [Fam1A.1 aminoacylation ribozyme variant] | 2.13 | 1.08 | 0.967 | 1.01 | 0.795 | 1.85 |
| CUACUUCAAACUAUCGGCCUG [Fam1A.1 aminoacylation ribozyme variant] | 0.97 | 1.2 | 1.13 | 1.06 | 0.909 | 1.66 |
| AUUACCCUAGUCAUCGUGUGA [Fam2.1 aminoacylation ribozyme variant] | 5.35 | 1.25 | 2.4 | 1.29 | 2.17 | 2.89 |
| CUACUUCAAACAAUCGCUCUC [Fam1A.1 aminoacylation ribozyme variant] | 2.18 | 0.621 | 0.384 | 1.02 | 0.515 | 1.2 |
| CUGCUUCAAACAAUCUGUCUG [Fam1A.1 aminoacylation ribozyme variant] | 4.03 | 0.604 | 0.675 | 0.701 | 0.647 | 1.53 |
| AUUACCCUGGACAUCGACUGA [Fam2.1 aminoacylation ribozyme variant] | 0.713 | 0.543 | 0.616 | 0.626 | 0.529 | 0.238 |
| UAGUUUGCUUAUAGUCGCAAG [Fam3.1 aminoacylation ribozyme variant] | 2.08 | 1.53 | 1.84 | 1.54 | 1.59 | 1.81 |
| AUUCACCUAGGUCAUCGGGUA [Fam2.2 aminoacylation ribozyme variant] | 605 | 37.2 | 71.8 | 32 | 101 | 49.5 |
| AAUUAUGCUAAUAGUCGCAAG [Fam3.1 aminoacylation ribozyme variant] | 3.25 | 2.21 | 1.46 | 1.65 | 1.81 | 2.57 |
| AUCACCCUGUUCAUCGAGUGA [Fam2.1 aminoacylation ribozyme variant] | 30 | 2.85 | 4.68 | 2.78 | 5.15 | 5.52 |
| CUACUUAAAACAAUCGCUCUG [Fam1A.1 aminoacylation ribozyme variant] | 0.52 | 0.623 | 0.706 | 0.727 | 0.481 | 0.462 |
| CUACUUCAAACAAUCCGUCCG [Fam1A.1 aminoacylation ribozyme variant] | 0.694 | 0.825 | 0.708 | 0.903 | 0.927 | 0.751 |
| CAUCACUUCAAGCAAUCGGUC [Fam1B.1 aminoacylation ribozyme variant] | 32.7 | 1.17 | 1.09 | 1.2 | 1.47 | 15.6 |

| Sequence | self-aminoacylation (biotinyl-Phe-oxazolone) | self-aminoacylation (biotinyl-Ile-oxazolone) | self-aminoacylation (biotinyl-Met-oxazolone) | self-aminoacylation (biotinyl-Val-oxazolone) | self-aminoacylation (biotinyl-Leu-oxazolone) | self-aminoacylation (biotinyl-Trp-oxazolone) |
| --- | --- | --- | --- | --- | --- | --- |
| AUUCACCUAGGUCAUUCGGUG [Fam2.2 aminoacylation ribozyme variant] | 33.6 | 3.94 | 4.55 | 3.79 | 6.91 | 5.13 |
| CCACACUUCGAGCAAACGGUC [Fam1B.1 aminoacylation ribozyme variant] | 0.648 | 0.678 | 0.663 | 0.655 | 0.632 | 0.57 |
| ACUACCGUGGUCAUCGAGUGA [Fam2.1 aminoacylation ribozyme variant] | 18 | 3.41 | 5.28 | 3.29 | 5.21 | 6.91 |
| CCCCACUUCAAGCAAUCGGAC [Fam1B.1 aminoacylation ribozyme variant] | 2.8 | 1.45 | 1.44 | 1.52 | 1.19 | 2.45 |
| CUACUUCAAACAAUUAGUCUG [Fam1A.1 aminoacylation ribozyme variant] | 1.04 | 0.891 | 0.662 | 0.901 | 0.712 | 0.684 |
| CUACUUCUAACAAUCGGCCUG [Fam1A.1 aminoacylation ribozyme variant] | 1.01 | 1.09 | 0.997 | 1.2 | 1.31 | 1.05 |
| AUUAUCCUGGUCAUCGUGUGA [Fam2.1 aminoacylation ribozyme variant] | 28.6 | 2.15 | 3.54 | 2.05 | 3.83 | 5.91 |
| CCACACUUCAACCAAUCGGUG [Fam1B.1 aminoacylation ribozyme variant] | 4.06 | 3.05 | 3.66 | 2.91 | 6.37 | 5.38 |
| AUUAACCUAGGUCAUGGGGUG [Fam2.2 aminoacylation ribozyme variant] | 22.6 | 2.28 | 3.3 | 2.38 | 4.82 | 3.44 |
| CUACUUCUAAUAAUCGGUCUG [Fam1A.1 aminoacylation ribozyme variant] | 1.02 | 0.776 | 0.699 | 0.792 | 0.63 | 0.774 |
| CCACACUUCAAGCAAUCAGUU [Fam1B.1 aminoacylation ribozyme variant] | 2.42 | 1.15 | 0.802 | 1.29 | 0.925 | 1.12 |
| AAGUUUGCAAAAAGUCGCAAG [Fam3.1 aminoacylation ribozyme variant] | 1.72 | 0.902 | 1.07 | 0.733 | 0.938 | 0.831 |
| AUUACCCUGCUCAUCUAGUGA [Fam2.1 aminoacylation ribozyme variant] | 29.8 | 2.97 | 6.35 | 3.3 | 6.75 | 8.05 |
| GUACUUCAAACAAUCGGUCAG [Fam1A.1 aminoacylation ribozyme variant] | 7.14 | 1.5 | 1.31 | 1.34 | 1.43 | 7.34 |
| AUUACCCUUGUCAUUGAGUGA [Fam2.1 aminoacylation ribozyme variant] | 34 | 4.11 | 8.1 | 4.34 | 8.5 | 10.6 |
| CCCCACUUCAGGCAAUCGGUC [Fam1B.1 aminoacylation ribozyme variant] | 9.29 | 2.56 | 2.35 | 2.64 | 2.63 | 5.21 |
| CGACACUUCAAUCAAUCGGUC [Fam1B.1 aminoacylation ribozyme variant] | 14.7 | 1.04 | 0.958 | 1.05 | 1.15 | 7.59 |
| CUCCUUCAAACAAGCGGUCUG [Fam1A.1 aminoacylation ribozyme variant] | 0.811 | 0.98 | 0.734 | 0.83 | 0.774 | 1.25 |
| AUUCACCUAGGUCACCGGGUU [Fam2.2 aminoacylation ribozyme variant] | 10 | 1.77 | 2.18 | 1.98 | 2.59 | 3.01 |
| AUGACCCUGGUAAUCGAGUGA [Fam2.1 aminoacylation ribozyme variant] | 23.9 | 2.7 | 5.08 | 2.8 | 5.39 | 6.37 |
| UUUCACCUAGGUCAUGGGGUG [Fam2.2 aminoacylation ribozyme variant] | 29.1 | 3.19 | 3.8 | 2.96 | 4.07 | 4.25 |
| AUUACUCUGGUCACCGAGUGA [Fam2.1 aminoacylation ribozyme variant] | 44.4 | 3.28 | 7.28 | 3.27 | 8.45 | 9.08 |
| AAGUUUUCUAAUAGUCGCCAG [Fam3.1 aminoacylation ribozyme variant] | 2.81 | 1.78 | 1.54 | 1.32 | 1.15 | 1.91 |
| AUCACCCUGCUCAUCGAGUGA [Fam2.1 aminoacylation ribozyme variant] | 19.1 | 1.57 | 2.48 | 1.9 | 2.67 | 3.44 |
| AGUACCCCGGUCAUCGAGUGA [Fam2.1 aminoacylation ribozyme variant] | 43.9 | 3.7 | 5.52 | 3.75 | 6.8 | 7.21 |
